Reference: the nanobody polyreactivity screen of Harvey et al. (2022)

Assay: yeast display, Sf9 membrane polyspecificity reagent, FACS + sequencing; frameworks hold sequencing errors
How it was run: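 After 36–48 hours of galactose induction, yeast (Saccharomyces cerevisiae BJ5465) displaying a synthetic nanobody library were stained at 4 °C for 1 hour with 10% biotinylated, detergent-solubilized Sf9 membrane reagent. Streptavidin microbeads enriched the stained cells before FACS sorting into low and high (top ~1%) gates on anti-HA and streptavidin fluorescence. Each clone's polyreactivity label reflects its gate of origin.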

| Sequence | polyreactivity (PSR sort gate) |
| --- | --- |
| QVQLVESGGGLVQAGGSLRLSCAASGSTFVGYAMGWYRQAPGKERELVAAISGGDSTYYADSVKGRFTLSRDNAQNTVYLQKNSLNPEDTALYYCAVGWTFDRRGYGYWGQGTQVTVSS | low polyreactivity |
| QVQLVESGGGLVQAGGSLRLSCAASGSTFVGYAMGWYRQAPGKERELVAAITTDGGSTYYADSVKVRFTISRDNAKNTVYLQMNSLKPEDTAVYYCAADHRVYPRDDWDSPDEFGYWGQGTQVTVSS | low polyreactivity |
| QVQLVESGGGLVQAGGSLRLSCAASGSTFVGYAMGWYRQAPGKERELVADIDSIGGSTYYADSVKGRFTISRDNAKNTVYLQMNSLKPEDTAVYYCAARRFDTALVLYDYWGQGTQVTVSS | low polyreactivity |
| QVQLVESGGGLVQAGGSLRLSCAASGSTFVGYAMGWYRQAPGKERELVAGITASGTNTYYADSVKGRFTISRDNAKNTVYLQMNSLKPEDTAVYYCAAESNRRFEGEYWGQGTQVTVSS | high polyreactivity |
| QVQLVESGGGLVQAGGSLRLSCAASGSTFVGYAMGWYRQAPGKERELVAHISYSGGSTYYADSVKGRFTISCDNAKNTVYLQMNSLKPEDTAVYYCAAEWSRHYYYAPRYDYWGQGTQVTVSS | low polyreactivity |
| QVQLVESGGGLVQAGGSLRLSCAASGSTFVGYAMRGYRQAPGKERELVADIDSIGGSTYYADSVKGRFTISRDNAKNTVYLQMNSLKPEDTAVYYCAARRFDTALVLYDYWGQGTQVTVSS | low polyreactivity |
| QVQLVESGGGLVQAGGSLRLSCAASGSTFVHYAMGWYRQAPGKERELVAAITWSGGSTYYADSVKGRFTISRDNAKNTVYLPMNSLKPEDTAVYYCAARNFGAWRWYSYGAHLGSEYWGQGTQVTVSS | low polyreactivity |
| QVQLVESGGGLVQAGGSLRLSCAASGSTFVINAMGWYRQAPGKERELVADIDYRGGSTNYADSVKGRFTISRDNAKNTVYLQMNSLKPEDTAVYYCNKRYVIRRRGYDYWGQGTQVTVSS | low polyreactivity |
| QVQLVESGGGLVQAGGSLRLSCAASGSTFVIYAMGWYRQAPGKERELVAAITISGGRTYYADSVKGRFTISRDKAKNTVYLQMNSLKPEDTAVYYCAATVVSTYPYGYGSSFVRDDYWGQGTQVTVSS | low polyreactivity |
| QVQLVESGGGLVQAGGSLRLSCAASGSTFVIYDMGWYRQAPGKERELVAAISYSGGSTYYADSVKGRFTISRDNAKNTVYLQMNSLKPEDTAVYYCNAGVLVLLYAYLPSEQEYWGQGTQVTVSS | low polyreactivity |
| QVQLVESGGGLVQAGGSLRLSCAASGSTFVIYTMGWYRQAPVKERELVAAISWSGGITRYADSVKGRFTISRDNAKNTVYLQMNSLKPEDTAVYYCNASQWPSRFDYWGQGTQVTVSS | low polyreactivity |
| QVQLVESGGGLVQAGGSLRLSCAASGSTFVKYAMGWYRQAPGKERELVARISSSGGSTYYADSVKGRFTISRDNAKNTVYLQMNSLKPEDTAVYYCAAPSLIAKYDYWGQGTQVTVSS | high polyreactivity |
| QVQLVESGGGLVQAGGSLRLSCAASGSTFVLNAMGWYRQAPGKERELVAAINLDSGNTNYADSVKGRFTISRDNAKYTVYLQMNSLKPEDTAVYYCNTDVKFGGTAYDYWGQGTQVTVSS | low polyreactivity |
| QVQLVESGGGLVQAGGSLRLSCAASGSTFVLNAMGWYRQSPGKERQLVAGISYGTGSTYYADSVKGRITISRDNAKNTVYLQMNSLKPEDTAVYFCAADNWAVNAYYWYIYDYWGQGTQVTVSS | low polyreactivity |
| QVQLVESGGGLVQAGGSLRLSCAASGSTFVNNAMGWYIQAPGKERELVAAIRSSDGRTYYADSVKGRFTISRDNAKNTVYLQMNSLKPEDTAVYYCATAVGTKYRTRIFEYYYWGQGTQVTVSS | high polyreactivity |
| QVQLVESGGGLVQAGGSLRLSCAASGSTFVNYAMVWYRQAPGKERELVAAITRGGYTYYADSVKGRFTISRDNAKNTVYLEMNSLKPEDTAFYYCNAAVSYPKYPYVSPGVPSYDYWGQGTQVSVSS | low polyreactivity |
| QVQLVESGGGLVQAGGSLRLSCAASGSTFVPYAMGWYRPAPGKERELVAGITFSGGSTYYADSVKGRFTISRDNAKNTVYLQMNSLKPEDTAVYYCAAGGWRGHYYWGQGTQVTVSS | high polyreactivity |
| QVQLVESGGGLVQAGGSLRLSCAASGSTFVPYTMGWYRQAPGKERELVAAISGSGGTDYADSVKGRFTISRDNAKNTVYLQMNSLKPEDTAVYYCATDGLDFWFIYDYWGQGTQVTVSS | low polyreactivity |
| QVQLVESGGGLVQAGGSLRLSCAASGSTFVPYTMGWYRQAPGKERELVAVITSGGSTNYADSVKGRFTISRDNAKNTVYLQMNSLKPEDTAVYYCAAYGGTHYTYRYDYWGQGTQVTVSS | high polyreactivity |
| QVQLVESGGGLVQAGGSLRLSCAASGSTFVPYVMGWYRQAPGKERELVAAISKSGTSTYYADSVKGRFTISRDNAKNTDYLQMNSLKPEDTAVYYCAAVARRQVPYDYWGQGTQVTVSS | high polyreactivity |
| QVQLVESGGGLVQAGGSLRLSCAASGSTFVQNDMGWYIPAPGKERELVAAISRTGGSTYYADSVKGRFTISRDNAKNTVYLQMNSLKPEDTAVYYCARRYYYQYRYDYWGQGTQVTVSS | high polyreactivity |
